The record followed here is patent US20040009568.

In data set [1] the target is dephosphorylated α-casein (UniProt P02662).
dephosphorylated α-casein, sequence (P02662 16-214): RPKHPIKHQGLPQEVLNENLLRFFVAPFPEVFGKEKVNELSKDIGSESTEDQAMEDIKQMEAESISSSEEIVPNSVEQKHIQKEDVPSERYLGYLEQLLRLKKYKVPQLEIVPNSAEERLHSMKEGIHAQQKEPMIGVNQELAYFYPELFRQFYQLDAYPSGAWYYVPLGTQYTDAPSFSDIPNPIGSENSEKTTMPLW

Consider “catalytic domain of the human hepatocyte growth factor receptor kinase (HGFRkd), unphosphorylated”, for which the autophosphorylation rate result was “The HGFR autophosphorylation rate is dependent on the concentration of HGFR”. For the same substance, in the data set with poly(Glu4Tyr), the Km (steady-state, coupled enzymatic assay, 37 C) amounted to 10.1 mM and the kcat/Km (steady-state, coupled enzymatic assay, 37 C) was 48.1 s^-1M^-1.
“phosphorylated HGFR (autophosphorylated catalytic domain of the human hepatocyte growth factor receptor kinase)”: in data set [1], the “Km, Dephosphorylated α-casein (coupled, enzymatic format)” value turned out to be 0.0285 ± 0.0035 mM. In addition, in the data set on poly(Glu4Tyr), the Km (steady-state, coupled enzymatic assay, 37 C) is 8.19 mM and the kcat/Km (steady-state, coupled enzymatic assay, 37 C) stood at 9260 s^-1M^-1.
